According to US20250066503A1, “CELL INJURY INDUCING THERAPEUTIC DRUG FOR USE IN CANCER THERAPY” (CHUGAI SEIYAKU KABUSHIKI KAISHA, priority 2016, published 2025):

Biological target: T1, human GPC3 (human, UniProt P51654 25-563)
T1 construct: range 25-563; soluble analyte; also called soluble human GPC3; glypican 3
Assay: SPR

T1 sequence (P51654 25-563 limits assumed): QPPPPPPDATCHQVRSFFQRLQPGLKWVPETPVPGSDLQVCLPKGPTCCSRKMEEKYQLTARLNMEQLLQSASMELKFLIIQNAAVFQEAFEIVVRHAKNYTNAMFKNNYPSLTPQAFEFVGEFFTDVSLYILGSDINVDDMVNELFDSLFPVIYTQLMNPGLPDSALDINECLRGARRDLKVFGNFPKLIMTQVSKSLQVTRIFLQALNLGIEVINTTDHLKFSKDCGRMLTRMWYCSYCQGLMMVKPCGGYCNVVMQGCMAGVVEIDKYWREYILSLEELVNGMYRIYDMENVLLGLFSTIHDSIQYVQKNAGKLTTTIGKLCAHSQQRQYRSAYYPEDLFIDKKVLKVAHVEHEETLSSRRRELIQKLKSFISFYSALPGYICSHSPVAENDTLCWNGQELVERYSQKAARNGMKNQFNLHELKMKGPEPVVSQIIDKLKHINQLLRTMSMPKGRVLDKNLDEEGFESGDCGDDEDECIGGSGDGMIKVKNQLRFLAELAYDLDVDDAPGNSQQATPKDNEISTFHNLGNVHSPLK

Binder | Kd [nM]
H0610-G1dh/none-Hi-Kn010G3/TR01L012-k0 (antibody, V domains shown, one-arm) VH: QVQLVQSGAEVKKPGASVKVSCKASGYTFTDYEMHWIRQPPGQGLEWIGAIDGKTPDTAYSQKFKGRVTLTADKSTSTAYMELSSLTSEDTAVYYCTRFYSYTYWGQGTLVTVSS VL: DIVMTQSPLSLPVTPGEPASISCRSSQSLVHSNRNTYLHWYLQKPGQSPQLLIYKVSNRFRGVPDRFSGSGSGTDFTLKISRVEAEDVGVYYCGQGTQVPYTFGQGTKVEIE | 4.25
GCH025-G1dh/none-Hi-Kn010G3/L0000-k0 (antibody, V domains shown, one-arm) VH: QVQLVQSGAEVKKPGASVTVSCKASGYTFTDYEMHWIRQPPGEGLEWIGAIDGETPDTAYSQKFKGRVTLTADKSTSTAYMELSSLTSEDTAVYYCTRFYSYTYWGQGTLVTVSS VL: DIVMTQSPLSLPVTPGEPASISCRSSQSLVHSNRNTYLHWYQQKPGQAPRLLIYKVSNRFSGVPDRFSGSGSGTDFTLKISRVEAEDVGVYYCGQGTQVPYTFGQGTKLEIKR | 5.05
H0610-G1dh/none-Hi-Kn010G3/TR01L015-k0 (antibody, V domains shown, one-arm) VH: QVQLVQSGAEVKKPGASVKVSCKASGYTFTDYEMHWIRQPPGQGLEWIGAIDGKTPDTAYSQKFKGRVTLTADKSTSTAYMELSSLTSEDTAVYYCTRFYSYTYWGQGTLVTVSS VL: DIVMTQSPLSLPVTPGEPASISCRSSQSPVHSNRNTYLHWYLQKPGQSPQLLIYKVSNRFSGVPDRFSGSGSGTDFTLKISRVEAEDVGVYYCGQGTQVPYTFGQGTKLEIK | 2.16
GCH015-G1dh/none-Hi-Kn010G3/L0000-k0 (antibody, V domains shown, one-arm) VH: QVQLVQSGAEVKKPGASVKVSCKASGYTFTDYEMHWIRQPPGQGLEWIGAIDGKTPDTAYEESFKGRVTLTADKSTSTAYMELSSLTSEDTAVYYCTRFYSYTYWGQGTLVTVSS VL: DIVMTQSPLSLPVTPGEPASISCRSSQSLVHSNRNTYLHWYQQKPGQAPRLLIYKVSNRFSGVPDRFSGSGSGTDFTLKISRVEAEDVGVYYCGQGTQVPYTFGQGTKLEIKR | 4.14
H0610-G1dh/none-Hi-Kn010G3/TR01L019-k0 (antibody, V domains shown, one-arm) VH: QVQLVQSGAEVKKPGASVKVSCKASGYTFTDYEMHWIRQPPGQGLEWIGAIDGKTPDTAYSQKFKGRVTLTADKSTSTAYMELSSLTSEDTAVYYCTRFYSYTYWGQGTLVTVSS VL: DIVMTQSPLSLPVTPGEPASISCQASESPVHSNRNTYLHWYLQKPGQSPQLLIYKVSNRFSGVPDRFSGSGSGTDFTLKISRVEAEDVGVYYCYQGTQVPYTFGQGTKLEIK | 1.15
GCH014-G1dh/none-Hi-Kn010G3/L0000-k0 (antibody, V domains shown, one-arm) VH: QVQLVQSGAEVKKPGASVKVSCKASGYTFTDYEMHWIRQPPGEGLEWIGAIDGKTPDTAYEQKFKGRVTLTADKSTSTAYMELSSLTSEDTAVYYCTRFYSYTYWGQGTLVTVSS VL: DIVMTQSPLSLPVTPGEPASISCRSSQSLVHSNRNTYLHWYQQKPGQAPRLLIYKVSNRFSGVPDRFSGSGSGTDFTLKISRVEAEDVGVYYCGQGTQVPYTFGQGTKLEIKR | 4.2
GCH008-G1dh/none-Hi-Kn010G3/L0000-k0 (antibody, V domains shown, one-arm) VH: QVQLVQSGAEVKKPGASVKVSCKASGYTFTDYEMHWIRQPPGQGLEWIGAIDGETPDTAYSQKFKGRVTLTADKSTSTAYMELSSLTSEDTAVYYCTRFYSYTYWGQGTLVTVSS VL: DIVMTQSPLSLPVTPGEPASISCRSSQSLVHSNRNTYLHWYQQKPGQAPRLLIYKVSNRFSGVPDRFSGSGSGTDFTLKISRVEAEDVGVYYCGQGTQVPYTFGQGTKLEIKR | 5.55
GCH016-G1dh/none-Hi-Kn010G3/L0000-k0 (antibody, V domains shown, one-arm) VH: QVQLVQSGAEVKKPGASVKVSCKASGYTFTDYEMHWIRQPPGQGLEWIGAIDGKTPDTAYEQKFQDRVTLTADKSTSTAYMELSSLTSEDTAVYYCTRFYSYTYWGQGTLVTVSS VL: DIVMTQSPLSLPVTPGEPASISCRSSQSLVHSNRNTYLHWYQQKPGQAPRLLIYKVSNRFSGVPDRFSGSGSGTDFTLKISRVEAEDVGVYYCGQGTQVPYTFGQGTKLEIKR | 4.59
GCH010-G1dh/none-Hi-Kn010G3/L0000-k0 (antibody, V domains shown, one-arm) VH: QVQLVQSGAEVKKPGASVKVSCKASGYTFTDYEMHWIRQPPGQGLEWIGAIDGDTPDTAYEQKFKGRVTLTADKSTSTAYMELSSLTSEDTAVYYCTRFYSYTYWGQGTLVTVSS VL: DIVMTQSPLSLPVTPGEPASISCRSSQSLVHSNRNTYLHWYQQKPGQAPRLLIYKVSNRFSGVPDRFSGSGSGTDFTLKISRVEAEDVGVYYCGQGTQVPYTFGQGTKLEIKR | 4.12
GCH012-G1dh/none-Hi-Kn010G3/L0000-k0 (antibody, V domains shown, one-arm) VH: QVQLVQSGAEVKKPGASVKVSCKASGYTFTDYEMHWIRQPPGQGLEWIGAIDGKTPDTAEEQKFKGRVTLTADKSTSTAYMELSSLTSEDTAVYYCTRFYSYTYWGQGTLVTVSS VL: DIVMTQSPLSLPVTPGEPASISCRSSQSLVHSNRNTYLHWYQQKPGQAPRLLIYKVSNRFSGVPDRFSGSGSGTDFTLKISRVEAEDVGVYYCGQGTQVPYTFGQGTKLEIKR | 5.4
H0610-G1dh/none-Hi-Kn010G3/TR01L017-k0 (antibody, V domains shown, one-arm) VH: QVQLVQSGAEVKKPGASVKVSCKASGYTFTDYEMHWIRQPPGQGLEWIGAIDGKTPDTAYSQKFKGRVTLTADKSTSTAYMELSSLTSEDTAVYYCTRFYSYTYWGQGTLVTVSS VL: DIVMTQSPLSLPVTPGEPASISCRSSQSPVHSNRNTYIQWYLQKPGQSPQLLIYKVSNRFSGVPDRFSGSGSGTDFTLKISRVEAEDVGVYYCYQGTQVPYTFGQGTKLEIK | 0.00827
GCH013-G1dh/none-Hi-Kn010G3/L0000-k0 (antibody, V domains shown, one-arm) VH: QVQLVQSGAEVKKPGASVTVSCKASGYTFTDYEMHWIRQPPGQGLEWIGAIDGKTPDTAYEQKFKGRVTLTADKSTSTAYMELSSLTSEDTAVYYCTRFYSYTYWGQGTLVTVSS VL: DIVMTQSPLSLPVTPGEPASISCRSSQSLVHSNRNTYLHWYQQKPGQAPRLLIYKVSNRFSGVPDRFSGSGSGTDFTLKISRVEAEDVGVYYCGQGTQVPYTFGQGTKLEIKR | 4.44
H0610-G1dh/none-Hi-Kn010G3/TR01L020-k0 (antibody, V domains shown, one-arm) VH: QVQLVQSGAEVKKPGASVKVSCKASGYTFTDYEMHWIRQPPGQGLEWIGAIDGKTPDTAYSQKFKGRVTLTADKSTSTAYMELSSLTSEDTAVYYCTRFYSYTYWGQGTLVTVSS VL: DIVMTQSPLSLPVTPGEPASISCQASESPVHSNRNTYIQWYLQKPGQSPQLLIYKVSNRFSGVPDRFSGSGSGTDFTLKISRVEAEDVGVYYCYQGTQVPYTFGQGTKLEIK | 0.0224
GCH006-G1dh/none-Hi-Kn010G3/L0000-k0 (antibody, V domains shown, one-arm) VH: QVQLVQSGAEVKKPGASVKVSCKASGYTFTDYEMHWIRQPPGQGLEWIGAIDGKTPDTAYEQKFKGRVTLTADKSTSTAYMELSSLTSEDTAVYYCTRFYSYTYWGQGTLVTVSS VL: DIVMTQSPLSLPVTPGEPASISCRSSQSLVHSNRNTYLHWYQQKPGQAPRLLIYKVSNRFSGVPDRFSGSGSGTDFTLKISRVEAEDVGVYYCGQGTQVPYTFGQGTKLEIKR | 4.06
H0610-G1dh/none-Hi-Kn010G3/TR01L016-k0 (antibody, V domains shown, one-arm) VH: QVQLVQSGAEVKKPGASVKVSCKASGYTFTDYEMHWIRQPPGQGLEWIGAIDGKTPDTAYSQKFKGRVTLTADKSTSTAYMELSSLTSEDTAVYYCTRFYSYTYWGQGTLVTVSS VL: DIVMTQSPLSLPVTPGEPASISCRSSQSPVHSNRNTYLHWYLQKPGQSPQLLIYKVSNRFSGVPDRFSGSGSGTDFTLKISRVEAEDVGVYYCYQGTQVPYTFGQGTKLEIK | 1.08
GCH003-G1dh/none-Hi-Kn010G3/L0000-k0 (antibody, V domains shown, one-arm) VH: QVQLVQSGAEVKKPGASVKVSCKASGYTFTDYEMHWIRQPPGQGLEWIGAIDGDTPDTAYSQKFKGRVTLTADKSTSTAYMELSSLTSEDTAVYYCTRFYSYTYWGQGTLVTVSS VL: DIVMTQSPLSLPVTPGEPASISCRSSQSLVHSNRNTYLHWYQQKPGQAPRLLIYKVSNRFSGVPDRFSGSGSGTDFTLKISRVEAEDVGVYYCGQGTQVPYTFGQGTKLEIKR | 5.2
H0610-G1dh/none-Hi-Kn010G3/TR01L018-k0 (antibody, V domains shown, one-arm) VH: QVQLVQSGAEVKKPGASVKVSCKASGYTFTDYEMHWIRQPPGQGLEWIGAIDGKTPDTAYSQKFKGRVTLTADKSTSTAYMELSSLTSEDTAVYYCTRFYSYTYWGQGTLVTVSS VL: DIVMTQSPLSLPVTPGEPASISCQASESPVHSNRNTYLHWYLQKPGQSPQLLIYKVSNRFSGVPDRFSGSGSGTDFTLKISRVEAEDVGVYYCGQGTQVPYTFGQGTKLEIK | 2.17
GCH005-G1dh/none-Hi-Kn010G3/L0000-k0 (antibody, V domains shown, one-arm) VH: QVQLVQSGAEVKKPGASVKVSCKASGYTFTDYEMHWIRQPPGQGLEWIGAIDGKTPDTAESQKFKGRVTLTADKSTSTAYMELSSLTSEDTAVYYCTRFYSYTYWGQGTLVTVSS VL: DIVMTQSPLSLPVTPGEPASISCRSSQSLVHSNRNTYLHWYQQKPGQAPRLLIYKVSNRFSGVPDRFSGSGSGTDFTLKISRVEAEDVGVYYCGQGTQVPYTFGQGTKLEIKR | 5.32
GCH023-G1dh/none-Hi-Kn010G3/L0000-k0 (antibody, V domains shown, one-arm) VH: QVQLVQSGAEVKKPGASVKVSCKASGYTFTDYEMHWIRQPPGEGLEWIGAIDGETPDTAYSQKFKGRVTLTADKSTSTAYMELSSLTSEDTAVYYCTRFYSYTYWGQGTLVTVSS VL: DIVMTQSPLSLPVTPGEPASISCRSSQSLVHSNRNTYLHWYQQKPGQAPRLLIYKVSNRFSGVPDRFSGSGSGTDFTLKISRVEAEDVGVYYCGQGTQVPYTFGQGTKLEIKR | 4.94
GCH022-G1dh/none-Hi-Kn010G3/L0000-k0 (antibody, V domains shown, one-arm) VH: QVQLVQSGAEVKKPGASVTVSCKASGYTFTDYEMHWIRQPPGQGLEWIGAIDGETPDTAYSQKFKGRVTLTADKSTSTAYMELSSLTSEDTAVYYCTRFYSYTYWGQGTLVTVSS VL: DIVMTQSPLSLPVTPGEPASISCRSSQSLVHSNRNTYLHWYQQKPGQAPRLLIYKVSNRFSGVPDRFSGSGSGTDFTLKISRVEAEDVGVYYCGQGTQVPYTFGQGTKLEIKR | 4.92
GCH007-G1dh/none-Hi-Kn010G3/L0000-k0 (antibody, V domains shown, one-arm) VH: QVQLVQSGAEVKKPGASVKVSCKASGYTFTDYEMHWIRQPPGQGLEWIGAIDGKTPDTAYSDKFKGRVTLTADKSTSTAYMELSSLTSEDTAVYYCTRFYSYTYWGQGTLVTVSS VL: DIVMTQSPLSLPVTPGEPASISCRSSQSLVHSNRNTYLHWYQQKPGQAPRLLIYKVSNRFSGVPDRFSGSGSGTDFTLKISRVEAEDVGVYYCGQGTQVPYTFGQGTKLEIKR | 4.93
GCH019-G1dh/none-Hi-Kn010G3/L0000-k0 (antibody, V domains shown, one-arm) VH: QVQLVQSGAEVKKPGASVTVSCKASGYTFTDYEMHWIRQPPGEGLEWIGAIDGKTPDTAYEQKFKGRVTLTADKSTSTAYMELSSLTSEDTAVYYCTRFYSYTYWGQGTLVTVSS VL: DIVMTQSPLSLPVTPGEPASISCRSSQSLVHSNRNTYLHWYQQKPGQAPRLLIYKVSNRFSGVPDRFSGSGSGTDFTLKISRVEAEDVGVYYCGQGTQVPYTFGQGTKLEIKR | 4.36
